Assay results as given in US6933284.

molecular target: LDL receptor on normal human fibroblasts (human) (UniProt P01130); assay: competition with 125I-labeled human plasma LDL (2 µg/ml) for LDL receptors on normal human fibroblasts, 3 h at 4 °C

| ED50 [µg/mL] | Substance |
| --- | --- |
| 2.4 | K3363E LDL (recombinant LDL, human apo-B100 with glutamic acid for lysine at residue 3363), P04114 28-4563 |
| > 20 | R3500Q LDL (recombinant LDL, human apo-B100 with glutamine for arginine at residue 3500), P04114 28-4563 |
| > 20 | RK3359-3369SA LDL (recombinant LDL, human apo-B100 with the arginines of Site B changed to serines and the lysines to alanines), P04114 28-4563 |
| 2.3 | recombinant control LDL (human apo-B100 with leucine in place of glutamine at position 2153), P04114 28-4563 |
